Reference: patent EP4541814A1 (Cytiva BioProcess R&D AB, dated 2025)
Numbering of substitutions follows the chain as printed.

B1: vh428 (SEQ ID NO:146) fused to SEQ ID NO:160, Example 5 (VHH)
chain (part 1 of 2): QVQLQQSGGGSVQAGGSLRLSCTISGRTLSDFTMAWFRQRPGKEREFVAAISWSGAYTYYADSVKGRFTISRDNAKNTVYLQMNSLKPEDTAVYYCAAGPTGLLSRKTTPADYQYWGQGTQVTVSS
chain (part 2 of 2): not shown
B2: vh252 (SEQ ID NO:94) (VHH)
VHH: B1 chain (part 1 of 2) with R19K, F32Y, A35G, Y59K, R106K, T108A, Q114D
B3: vh253 (SEQ ID NO:95) (VHH)
VHH: B1 chain (part 1 of 2) with R19S, F32Y, A35G, Y59K, R106K, T108A, Q114D
B4: vh247 (SEQ ID NO:89) (VHH)
VHH: B1 chain (part 1 of 2) with Q5V, F32Y, A35G, Y59K, R106K, T108A, Q114D
B5: vh271 (SEQ ID NO:122) (VHH)
VHH: B1 chain (part 1 of 2) with F32Y, A35G, Y59K, A61V, R106K, T108A, Q114D
B6: vh344 (SEQ ID NO:98) (VHH)
VHH: B1 chain (part 1 of 2) with T23A, F32Y, A35G, Y59K, V93I, R106K, T108A, Q114D
B7: vh258 (SEQ ID NO:102) (VHH)
VHH: B1 chain (part 1 of 2) with F32Y, A35G, R40I, Y59K, R106K, T108A, Q114D
B8: vh280 (SEQ ID NO:133) (VHH)
VHH: B1 chain (part 1 of 2) with F32Y, A35G, Y59K, S85N, R106K, T108A, Q114D
B9: vh286 (SEQ ID NO:139) (VHH)
VHH: B1 chain (part 1 of 2) with F32Y, A35G, Y59K, V93I, R106K, T108A, Q114D
B10: vh260 (SEQ ID NO:106) (VHH)
VHH: B1 chain (part 1 of 2) with F32Y, A35G, K43Q, Y59K, R106K, T108A, Q114D
B11: Nb276 (SEQ ID NO:128) (VHH)
VHH: B1 chain (part 1 of 2) with F32Y, A35G, Y59K, Y80L, R106K, T108A, Q114D
B12: vh257 (SEQ ID NO:101) (VHH)
VHH: B1 chain (part 1 of 2) with F32Y, A35G, R40T, Y59K, R106K, T108A, Q114D
B13: vh346 (SEQ ID NO:114) (VHH)
VHH: B1 chain (part 1 of 2) with F32Y, A35G, F47L, Y59K, V93I, R106K, T108A, Q114D
B14: vh281 (SEQ ID NO:134) (VHH)
VHH: B1 chain (part 1 of 2) with F32Y, A35G, Y59K, S85T, R106K, T108A, Q114D
B15: Nb329 (SEQ ID NO:127) (VHH)
VHH: B1 chain (part 1 of 2) with F32Y, A35G, Y59K, N77D, R106K, T108A, Q114D
B16: Nb273 (SEQ ID NO:124) (VHH)
VHH: B1 chain (part 1 of 2) with F32Y, A35G, Y59K, N77S, R106K, T108A, Q114D
B17: vh248 (SEQ ID NO:90) (VHH)
VHH: B1 chain (part 1 of 2) with Q5E, F32Y, A35G, Y59K, R106K, T108A, Q114D
B18: vh261 (SEQ ID NO:107) (VHH)
VHH: B1 chain (part 1 of 2) with F32Y, A35G, K43R, Y59K, R106K, T108A, Q114D
B19: Nb277 (SEQ ID NO:129) (VHH)
VHH: B1 chain (part 1 of 2) with F32Y, A35G, Y59K, Y80V, R106K, T108A, Q114D
B20: vh259 (SEQ ID NO:105) (VHH)
VHH: B1 chain (part 1 of 2) with F32Y, A35G, K43G, Y59K, R106K, T108A, Q114D
B21: vh332 (SEQ ID NO:96) (VHH)
VHH: B1 chain (part 1 of 2) with T23V, F32Y, A35G, Y59K, R106K, T108A, Q114D
B22: vh330 (SEQ ID NO:132) (VHH)
VHH: B1 chain (part 1 of 2) with F32Y, A35G, Y59K, Y80W, R106K, T108A, Q114D
B23: vh254 (SEQ ID NO:97) (VHH)
VHH: B1 chain (part 1 of 2) with T23S, F32Y, A35G, Y59K, R106K, T108A, Q114D
B24: vh250 (SEQ ID NO:92) (VHH)
VHH: B1 chain (part 1 of 2) with A14S, F32Y, A35G, Y59K, R106K, T108A, Q114D
B25: vh262 (SEQ ID NO:108) (VHH)
VHH: B1 chain (part 1 of 2) with F32Y, A35G, E44Q, Y59K, R106K, T108A, Q114D
B26: vh341 (SEQ ID NO:103) (VHH)
VHH: B1 chain (part 1 of 2) with F32Y, A35G, R40K, Y59K, R106K, T108A, Q114D
B27: vh249 (SEQ ID NO:91) (VHH)
VHH: B1 chain (part 1 of 2) with Q6E, F32Y, A35G, Y59K, R106K, T108A, Q114D
B28: vh345 (SEQ ID NO:104) (VHH)
VHH: B1 chain (part 1 of 2) with F32Y, A35G, R40A, Y59K, V93I, R106K, T108A, Q114D
B29: vh263 (SEQ ID NO:109) (VHH)
VHH: B1 chain (part 1 of 2) with F32Y, A35G, E44A, Y59K, R106K, T108A, Q114D
B30: vh328 (SEQ ID NO:119) (VHH)
VHH: B1 chain (part 1 of 2) with F32Y, A35G, Y59K, A61Q, R106K, T108A, Q114D
B31: vh331 (SEQ ID NO:140) (VHH)
VHH: B1 chain (part 1 of 2) with F32Y, A35G, Y59K, V93L, R106K, T108A, Q114D
B32: vh284 (SEQ ID NO:137) (VHH)
VHH: B1 chain (part 1 of 2) with F32Y, A35G, Y59K, V93A, R106K, T108A, Q114D
B33: vh327 (SEQ ID NO:118) (VHH)
VHH: B1 chain (part 1 of 2) with F32Y, A35G, Y59K, A61N, R106K, T108A, Q114D
B34: Nb274 (SEQ ID NO:125) (VHH)
VHH: B1 chain (part 1 of 2) with F32Y, A35G, Y59K, N77E, R106K, T108A, Q114D
B35: vh265 (SEQ ID NO:111) (VHH)
VHH: B1 chain (part 1 of 2) with F32Y, A35G, E44G, Y59K, R106K, T108A, Q114D
B36: vh264 (SEQ ID NO:110) (VHH)
VHH: B1 chain (part 1 of 2) with F32Y, A35G, E44D, Y59K, R106K, T108A, Q114D
B37: vh269 (SEQ ID NO:120) (VHH)
VHH: B1 chain (part 1 of 2) with F32Y, A35G, Y59K, A61T, R106K, T108A, Q114D
B38: vh118 (SEQ ID NO:80) fused to SEQ ID NO:160, Example 5 (VHH)
chain (part 1 of 2): B1 chain (part 1 of 2) with F32Y, A35G, Y59K, R106K, T108A, Q114D
chain (part 2 of 2): not shown
B39: vh282 (SEQ ID NO:135) (VHH)
VHH: B1 chain (part 1 of 2) with F32Y, A35G, Y59K, S85Q, R106K, T108A, Q114D
B40: vh118 (SEQ ID NO:80), Example 3 construct (VHH)
VHH: B1 chain (part 1 of 2) with F32Y, A35G, Y59K, R106K, T108A, Q114D
B41: vh270 (SEQ ID NO:121) (VHH)
VHH: B1 chain (part 1 of 2) with F32Y, A35G, Y59K, A61S, R106K, T108A, Q114D
B42: vh256 (SEQ ID NO:100) (VHH)
VHH: B1 chain (part 1 of 2) with I24V, F32Y, A35G, Y59K, R106K, T108A, Q114D
B43: vh266 (SEQ ID NO:112) (VHH)
VHH: B1 chain (part 1 of 2) with F32Y, A35G, R45L, Y59K, R106K, T108A, Q114D
B44: vh251 (SEQ ID NO:93) (VHH)
VHH: B1 chain (part 1 of 2) with A14T, F32Y, A35G, Y59K, R106K, T108A, Q114D
B45: vh325 (SEQ ID NO:113) (VHH)
VHH: B1 chain (part 1 of 2) with F32Y, A35G, R45I, Y59K, R106K, T108A, Q114D
B46: vh278 (SEQ ID NO:130) (VHH)
VHH: B1 chain (part 1 of 2) with F32Y, A35G, Y59K, Y80A, R106K, T108A, Q114D
B47: vh255 (SEQ ID NO:99) (VHH)
VHH: B1 chain (part 1 of 2) with I24S, F32Y, A35G, Y59K, R106K, T108A, Q114D
B48: vh275 (SEQ ID NO:126) (VHH)
VHH: B1 chain (part 1 of 2) with F32Y, A35G, Y59K, N77Q, R106K, T108A, Q114D
B49: vh279 (SEQ ID NO:131) (VHH)
VHH: B1 chain (part 1 of 2) with F32Y, A35G, Y59K, Y80F, R106K, T108A, Q114D

Assays:
AAV9 viral particles [1] = biological target: T1, AAV9 viral particles (adeno-associated virus 9); assay: SPR (Biacore 8K+), fusion protein amine-coupled to CM5, AAV9 2E12 vp/ml; response normalized to vh118
AAV9 viral particles [2] = biological target: T1, AAV9 viral particles; assay: SPR (Biacore), polypeptide amine-coupled to CM5, AAV9 analyte; response normalized to SEQ ID NO:80
AAV9 viral particles [3] = biological target: T1, AAV9 viral particles; assay: as above; remark: listed apart in the source
AAV9 viral particles [4] = biological target: T1, AAV9 viral particles; assay: as above; remark: listed apart in the source

Binder	Normalized AAV9 binding capacity (%) (AAV9 viral particles [3])	Normalized AAV9 binding capacity (%) (AAV9 viral particles [4])	also measured
B1			Normalized AAV9 binding capacity (%) (AAV9 viral particles [1]): 108%
B2			Normalized AAV9 binding capacity (%) (AAV9 viral particles [2]): 92%
B3			Normalized AAV9 binding capacity (%) (AAV9 viral particles [2]): 86%
B4			Normalized AAV9 binding capacity (%) (AAV9 viral particles [2]): 106%
B5	105%		
B6	100%		Normalized AAV9 binding capacity (%) (AAV9 viral particles [2]): 100%
B7		87%	
B8	100%		
B9	112%		
B10		77%	
B11	92%		
B12		69%	
B13	100%	100%	
B14	103%		
B15	111%		
B16	82%		
B17			Normalized AAV9 binding capacity (%) (AAV9 viral particles [2]): 105%
B18		105%	
B19	80%		
B20		72%	
B21			Normalized AAV9 binding capacity (%) (AAV9 viral particles [2]): 98%
B22	112%		
B23			Normalized AAV9 binding capacity (%) (AAV9 viral particles [2]): 73%
B24			Normalized AAV9 binding capacity (%) (AAV9 viral particles [2]): 96%
B25		104%	

Binder	Normalized AAV9 binding capacity (%) (AAV9 viral particles [3])	Normalized AAV9 binding capacity (%) (AAV9 viral particles [4])	also measured
B26		83%	
B27			Normalized AAV9 binding capacity (%) (AAV9 viral particles [2]): 86%
B28	101%	101%	
B29		108%	
B30	110%		
B31	109%		
B32	109%		
B33	109%		
B34	91%		
B35		101%	
B36		92%	
B37	85%		
B38			Normalized AAV9 binding capacity (%) (AAV9 viral particles [1]): 100%
B39	88%		
B40	100%	100%	Normalized AAV9 binding capacity (%) (AAV9 viral particles [2]): 100%
B41	103%		
B42			Normalized AAV9 binding capacity (%) (AAV9 viral particles [2]): 102%
B43		115%	
B44			Normalized AAV9 binding capacity (%) (AAV9 viral particles [2]): 99%
B45		97%	
B46	99%		
B47			Normalized AAV9 binding capacity (%) (AAV9 viral particles [2]): 103%
B48	94%		
B49	98%		
